Results: US9791436 (UNIVERSITY OF QUEENSLAND, dated 2017)

Molecular target: PSA (prostate specific antigen) (UniProt P07288 25-261)
Assay: cell-based or functional assay

Sequence of PSA (prostate specific antigen) (P07288 25-261 limits assumed): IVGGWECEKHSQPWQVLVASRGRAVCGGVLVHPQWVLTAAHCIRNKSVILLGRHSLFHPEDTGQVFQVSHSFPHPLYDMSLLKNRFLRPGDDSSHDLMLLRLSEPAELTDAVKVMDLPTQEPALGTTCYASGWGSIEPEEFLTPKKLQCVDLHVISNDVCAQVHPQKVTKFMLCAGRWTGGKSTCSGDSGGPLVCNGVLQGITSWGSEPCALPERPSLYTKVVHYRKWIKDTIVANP

B1: H6-68-AP-PSA-VHH (other)
chain: SSGSKALLKGVRDFNPISACVCLLENSSDGHSERLFGIGFGPYIIANQHLFRRNNGELTIKTMHGEFKVKNSTQLQMKPVEGRDIIVIKMAKDFPPFPQKLKFRQPTIKDRVCMVSTNFQQKSVSSLVSESSHIVHKEDTSFWQHWITTKDGQCGSPLVSIIDGNILGIHSLTHTTNGSNYFVEFPEKFVATYLDAADGWCKNWKFNADKISWGSFILWEDAPGGEHSSKLQSGAGREYVRFAPGGSGGSGGSGGSGGSGGDVQLQESGGGSVQAGGSLRLSCVASGWIYIPPCMAWFRQAPGKERERVATINPSGRTYYADSTKGRFRISQDNVKRTLYLYMNSLKPEDTATYYCAADDGTCPRMEFDDWGQGTQVTVSSGGSHHHHHH
  sensitivity of the PSA biosensor assay: 2 fold better than the N-terminal VHH configuration
